The target in the experiment is SARS-CoV-2 RBD (WT) (SARS-CoV-2 Wuhan-Hu-1 (wildtype), UniProt P0DTC2). In words: BLI. The following applies: both partners purified.

Numbering of substitutions follows the chain as printed. Values joined by “and” are separate entries in the source; they are usually repeats but may differ in a detail not shown here. Equal entries are not always repeated.

B1: S2A4 (antibody, V domains shown)
VH: EVQLVESGGGLVQPGGSLRLSCAASGFTFSSYWMNWVRQAPGKGLEWVANIKQDGSEKYYVDSVKGRFTISRDNAKNSLFLQMNSLRAEDTAVYYCARVWWLRGSFDYWGQGTLVTVSS
VL: NFMLTQPHSVSESPGKTVTISCTGSSGSIASNYVQWYQQRPGSAPTTVIYEDNQRPSGVPDRFSGSIDSSSNSASLTISGLKTEDEADYYCQSYDSSNHVVFGGGTKLTVL
By Kd is commonly meant the concentration at which binding is half-saturated. What is called koff is the rate constant with which the complex falls apart. As a reminder, the kon is the rate constant with which the complex forms. A higher kon goes with fast association. B1 had an equilibrium dissociation constant (Kd) of 25.3 nM, a koff of 0.0096 s⁻¹ and a kon of 380000 M⁻¹ s⁻¹.

B2: H18 (antibody, V domains shown)
VH: QVQLQESGPGLVKPSETLSLTCTVSGGSVSSGGYFWSWIRQPPGKGLEWIGCIYYSGSTNYNPSLKSRVTISVDTSKDQFSLKLSSVTAADTAVYYCARQLWLRGRFDYWGQGTLVTVSS
VL: NFMLTQPHSVSESPGKTVTISCTRSSGSIASNYVQWYQQRPGSSPTTVIYEDNQRPSGVPDRFSGSIDSSSNSASLTISGLKTEDEADYYCQSYDSSNVVFGGGTKLTVL
notes: human IgG1
Take B2: the equilibrium dissociation constant (Kd) is 29.5 nM and 29 nM; the off-rate constant (koff) is 0.00931 s⁻¹ and 0.0162 s⁻¹; the kon was 316000 M⁻¹ s⁻¹ and 560000 M⁻¹ s⁻¹.

B3: R1-26 (antibody, V domains shown)
VH: EVQLVESGGGLVQPGGSLRLSCAASGFTFSSYWMSWVRQAPGKGLEWVANIKQDGSEKYYVDSVKGRFTISRDNAKNSLYLQMNSLRAEDTAVYYCARGQLGPWVGVDYWGQGTLVTVSS
VL: B2 VL with R24G, S44A, V99W, K106Q
As for B3, the Kd was found to be 5.75 nM, the dissociation rate constant (koff) amounted to 0.00291 s⁻¹ and the on-rate constant (kon) amounted to 507000 M⁻¹ s⁻¹.

For the origin of these results see publication PMC11366018 (Nature Communications, 2024).
